1 substance from patent publication US20230416360A1 can be followed below.

Assay [1] has as its target human CD22 (full length, on cells) (human) (UniProt P20273). Nature of the assay: FACS, Raji cells.
The target in assay [2] is cynomolgus monkey CD22 on peripheral blood B cells (cynomolgus monkey (Macaca fascicularis)). Nature of the assay: FACS, cynomolgus PBMC, CD20+ B cells, antibody 100 nM. In general terms: In flow cytometry, cells or beads pass a laser one at a time.
Assay [3] deals with human CD22-ECD-His (human) (UniProt P20273). Briefly: ELISA, coated hCD22-ECD-His, antibody 0.10 nM. Background: An ELISA detects its analyte on a solid surface through an enzyme-linked reagent.
Assay [4] concerns the target cynomolgus monkey CD22 on peripheral blood B cells (cynomolgus monkey (Macaca fascicularis)). Briefly: FACS, cynomolgus PBMC, CD20+ B cells, antibody 10 nM.
Assay [5] deals with human CD22 (full length, on cells) (human) (UniProt P20273). Nature of the assay: FACS, CHO-K1-human CD22 2C4 cells.
Assay [6] deals with human CD22-ECD-His (human) (UniProt P20273). Briefly: ELISA, coated hCD22-ECD-His, antibody 0.01 nM.
The target of assay [7] is human CD22 (full length, on cells) (human) (UniProt P20273). Briefly: FACS, CHO-K1-human CD22 1G5.
Assay [8] addresses human CD22-ECD-His (human) (UniProt P20273). Nature of the assay: ELISA, coated hCD22-ECD-His, antibody 0.0001 nM.
For assay [9] the target is unchanged. Nature of the assay: ELISA, coated hCD22-ECD-His, antibody 0.00001 nM.
Assay [10] deals with human CD22 (full length, on cells) (human) (UniProt P20273). Nature of the assay: FACS, CHO-K1-human CD22 2C4.
The target is the same in assay [11]. Briefly: FACS, CHO-K1-human CD22 1D9.
In assay [12] the target is human CD22-ECD-His (human) (UniProt P20273). Nature of the assay: ELISA, coated hCD22-ECD-His, antibody 0.001 nM.
Assay [13] shares this target. Nature of the assay: ELISA, coated hCD22-ECD-His, antibody 100 nM.
Assay [14] has as its target cynomolgus monkey CD22 on peripheral blood B cells (cynomolgus monkey (Macaca fascicularis)). Briefly: FACS, cynomolgus PBMC, CD20+ B cells, antibody 1 nM.
In assay [15] the target is human CD22-ECD-His (human) (UniProt P20273). Briefly: ELISA, coated hCD22-ECD-His, antibody 10 nM.

Turning to “anti-hel-hIgG1 (negative control antibody against chicken egg lysozyme)”, the Cell mean fluorescence density in assay [1] is 158. Further, the figures for the Max MFI in [1] and in assay [5] were 374 and 340, respectively. The Proportion of VHH-Fc antibody positive cells to B cells (%) in assay [2] came out at 3%; in [4], 0%; in assay [14], 0%. Also, the OD450 in [3] was 0.06; in assay [6] it was 0.06; in assay [8], 0.06; in [9] it was 0.05; in assay [12], 0.06; in assay [13], 0.15. Further, the OD450 in assay [15] was determined as 0.08. Further, the Cell mean fluorescence intensity in [7], in assay [10] and in [11] was 66 in each case.
